This note sets out measurements from patent US20110177059A1, “PSA AND KLK2 AS THERAPEUTIC TARGETS AND MOLECULES INHIBITING PSA AND KLK2” (UNIVERSITY OF ROCHESTER, priority 2008, published 2011).

This test relates to LN-PSA cells. Briefly: MTT assay with PSA proteinase inhibitor, LN-PSA cells. The format is cell-based, human. As to conditions: 1000 ng/ml, vs vehicle 1x PBS. The procedure:
Cells of stable transfected LNCaP, CWR22rv1, PC-3 and Du145 sublines were seeded in 24-well tissue culture plates at a density of 5000 cells/well in media containing 10% CD-FBS with 1 nM DHT. At the indicated time points, the medium was replenished and determined cell proliferation by MTT [3-(4,5-dimethylthiazol-2-yl)-2,5-diphenyltetrazolium bromide assay. Serum-free medium containing MTT (0.5 mg/ml, Sigma) was added into each well and after 4 h incubation at 37° C., cellular formazan product was dissolved with acidic isopropanol, and the absorbance at OD595 was measured by spectrophotometry (Beckman Du640B). 6 replicate wells were used for each sample at each time point. a-Antichymotrypsin (MP Biomedicals, Inc) at a concentration of 1000 ng/ml was used in the MTT assay as a PSA proteinase inhibitor to treat the LNCaP cell sublines. LN-PSA, LN-siPSA cells were grown in 100-mm dishes. The cells were digested by trypsin-EDTA, harvested as many as 1×10^6 cells, and fixed them in 70% ethanol at 4° C. After 12 h, cells were centrifuged (1000 g, 7 min, 4° C.), and resuspended in PBS containing 0.05 mg/ml RNase A (Sigma), and then incubated at room temperature for 30min. After washing, the cells were stained with […] propidium iodide, filtered through a […], and analyzed 10,000 cells by flow cytometry (FACSCalibur, BD Company) with MODFIT software (Verity Software House, Inc).
For orientation: Tetrazolium assays rely on reduction of a dye to a coloured formazan, in cell work by metabolically active cells.

B1: α1-antichymotrypsin: PSA protease inhibitor (MP Biomedicals), used at 1000 ng/ml (protein, UniProt P01011 24-423, looked up)
Alpha-1-antichymotrypsin: HPNSPLDEENLTQENQDRGTHVDLGLASANVDFAFSLYKQLVLKAPDKNVIFSPLSISTALAFLSLGAHNTTLTEILKGLKFNLTETSEAEIHQSFQHLLRTLNQSSDELQLSMGNAMFVKEQLSLLDRFTEDAKRLYGSEAFATDFQDSAAAKKLINDYVKNGTRGKITDLIKDLDSQTMMVLVNYIFFKAKWEMPFDPQDTHQSRFYLSKKKWVMVPMMSLHHLTIPYFRDEELSCTVVELKYTGNASALFILPDQDKMEEVEAMLLPETLKRWRDSLEFREIGELYLPKFSISRDYNLNDILLQLGIEEAFTSKADLSGITGARNLAVSQVVHKAVLDVFEEGTEASAATAVKITLLSALVETRTIVRFNRPFLMIIVPTDTQNIFFMSKVTNPKQA
As for B1, the “PSA-induced cell growth (MTT)” value is given as “limited influence”. The “PSA-induced cell growth (MTT)” value (listed as ACT) is “not significantly changed”.
